# Measurements: the supplement of paper PMC12764529
# ± gives the half width of the 95% confidence interval.
# How the values were obtained:
# [1] = folding stability dG unfold from chymotrypsin proteolysis; higher = more stable
# Protocol: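 Folding stability of de novo designed mini-proteins (<80 aa, no Cys; designed by TrROS, TrMRF, ProteinMPNN and the joint model) was measured by cDNA display proteolysis with trypsin and chymotrypsin. Each protease was used at 11 concentrations in a threefold dilution series plus a no-protease condition. K50 was inferred by Bayesian fitting of sequencing counts, and dG unfold was derived against a sequence-predicted unfolded-state K50 (Tsuboyama et al. method). Sequences shown include variable-length N-terminal GS-type padding (SAGGSAGG...) inside a display construct carrying a PA tag. Rows were kept only if the AF2 dimer inter-PAE was >15, to exclude likely homo-oligomers.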
# [2] = folding stability dG unfold (combined trypsin and chymotrypsin); higher = more stable
# Summary of the method: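 Designed mini-proteins with no cysteine and under 80 residues were kept only if AlphaFold2 dimer inter-PAE was above 15. In a PA-tagged cDNA display construct, they were digested with trypsin and chymotrypsin and then sequenced. K50 was inferred by Bayesian fitting of counts, and unfolding free energy was derived per protease or combined against a sequence-predicted unfolded-state K50 and a shared folded-state K50.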
Sequence,folding stability dG unfold [1],folding stability dG unfold [2]
SAGGSAGGMLVPLDDTRVVPLPDGSYAVLVRPADGSELLREFDSLEDAVEWAEATGAGVADLPASAGGSAGG [r6_84_TrMRF],0.0582 ± 0.18 kcal/mol,-0.553 ± 0.34 kcal/mol
SAGGSAGGSGMPTRNVPITTPDGKVVTVVERPPERAEIIFPDGSRATIVDPARGYEEITITPESAGGSAGGS [r12_491_JUSTAS],0.945 ± 0.027 kcal/mol,0.542 ± 0.059 kcal/mol
SAGGSAGGSAGKKKVLILGGDAVATAKELKKLGEDVEVEVLESGEDLEEHLKNYDLVLSGSAGGSAGGSAGG [r17_225_TrMRF],0.344 ± 0.14 kcal/mol,0.106 ± 0.27 kcal/mol
SAGMVIELPNATITIETVPDPSSSNKVYRVTVTAHLPDGSRPVVVLTFPENVPIEEILKEAIKAAEELLSAG [r5_704_JUSTAS],5.93 ± 0.14 kcal/mol,> 6 kcal/mol
SAGGSAGGSAVEFTDPNGAEVLEIKPLPDGTTRVLTKLPGGEIPIVTYDPNTGKITTTLLPASAGGSAGGSA [r18_483_JUSTAS],0.135 ± 0.11 kcal/mol,-0.251 ± 0.2 kcal/mol
SAGGSAGGSAPFENLPEDAKEVEITFDPSLSEEVRKALAEELKPRIEAQGIKYKFKIVPKSNLSAGGSAGGS [r12_456_JUSTAS],-0.448 ± 0.59 kcal/mol,< -1 kcal/mol
SAGKVLEELGYELVEEKEEEIGDVKIITATFPVGESPVVVTAEVTEKKEDDKPIVKVKVTVTPLPPEAPSAG [r5_516_JUSTAS],0.977 ± 0.17 kcal/mol,0.58 ± 0.51 kcal/mol
SAGGSAGGSAGGKKKVKILEVKKIPELNEIVVVIETENGKPVLVPLKPGKTLEDVKKEISAGGSAGGSAGGS [r10_984_TrMRF],0.913 ± 0.042 kcal/mol,0.44 ± 0.21 kcal/mol
SAGGSAGGSAMPLGVTTSTSTSLLPSNSRLVTETITTPGTTSTTTTLLTPPPGEVLETTTTSSAGGSAGGSA [r18_459_JUSTAS],0.997 ± 0.027 kcal/mol,0.526 ± 0.09 kcal/mol
SALDPAAGTVTATVTRPVTLPDGRTVPVTRPVRVPVTYDVVVRDPETGEVVRAADYDPETGRLRDASAASAG [r14_122_TrMRF],0.548 ± 0.37 kcal/mol,< -1 kcal/mol
SAGMPADTFIELNITITVPSEEYEADPAAVKAAADAAIAAAKAAGLPVDAATFTFERVPPVDPNNPRVGSAG [r5_979_JUSTAS],-0.605 ± 0.2 kcal/mol,< -1 kcal/mol
SAGGSMKLKPGDEIWVPENMPEDAIKDEIKEWADNFNIKGIDDIEPPKPGWHRIKVEWPNGRKLTISAGGSA [r2_168_TrROS],-0.147 ± 0.17 kcal/mol,-0.748 ± 0.3 kcal/mol
SAGGSAGGAPVYVTTDTRERADPNGSTVRTSLVRDPNGPATYRVTETVPPDGSVASTTTAVPGASAGGSAGG [r6_839_JUSTAS],-0.532 ± 0.23 kcal/mol,< -1 kcal/mol
SPVAVVTYEDGSVSEVPFTHPDGRAYDLSRGPGDVATLTVTRLLPDGSLEPLPTVPFTSEAEAEAYLAAASA [r9_942_JUSTAS],0.201 ± 0.12 kcal/mol,-0.231 ± 0.074 kcal/mol
SAGGSAGGSAKRTIFIPAEDLQKNPDNAEELAQTIAEEFNDNGKEIKIEQHPDGGVVIELKSAGGSAGGSAG [r3_75_TrROS],-0.3 ± 0.1 kcal/mol,< -1 kcal/mol
SAGGSAGGSAGGPPNKKFILRIEHPGRPITFPFKSPKGLDEAADKFPDKFGMPPKIEVHPSAGGSAGGSAGG [r7_18_TrROS],-0.795 ± 0.92 kcal/mol,< -1 kcal/mol
SAGGSAGGSSMEVVTPIERPVDVTSPENGEVVKVRVKTLVGKDPNAWTTETTLTLPDGTPVALSAGGSAGGS [r12_283_JUSTAS],0.988 ± 0.11 kcal/mol,0.337 ± 0.2 kcal/mol
SAGGSAGGSAGGDEILELERIPETGELVLRRITPDGEGFRIEEEVVPVGPELAEALPEGSAGGSAGGSAGGS [r10_291_TrMRF],-0.279 ± 0.34 kcal/mol,< -1 kcal/mol
SAGGSAGGSAGMLSVTELSTEEKGSLVTTTTRATVGSTTVTTTTTTFVPRSTALLNPDRGSAGGSAGGSAGG [r11_213_JUSTAS],0.55 ± 0.089 kcal/mol,-0.0509 ± 0.48 kcal/mol
SAGSVSLPPGAVLTEERKLPDGSLVRTTTTVSPVPELPVDRIETTTEFYAPGGEKIGTETSSSLRPPGESAG [r5_787_JUSTAS],-0.0977 ± 0.13 kcal/mol,-0.493 ± 0.35 kcal/mol
SAGGSAGGMFVPEGKTVTVKLPGNETVTVKVKAGNSRPFDSLEEIEAFAAQPGFDIEVSSSPAKSAGGSAGG [r6_433_JUSTAS],0.0627 ± 0.077 kcal/mol,-0.722 ± 0.21 kcal/mol
SAGGSTAEELADQIHKKFMEQGYKITDVDITYNPNNWVMVKATIRNPDDPNQRMKMNIMIPKDEIKSAGGSA [r2_384_TrROS],0.649 ± 0.32 kcal/mol,0.239 ± 0.29 kcal/mol
SAGGSAGGSAGGRIRLRTELLVRREDGSLSRFRETAVFEVEARPRPVPAPRAYRDANGRLVSAGGSAGGSAG [r3_252_TrMRF],0.264 ± 0.075 kcal/mol,-0.558 ± 0.13 kcal/mol
SAGGSAGGSAGNISSLPPTPITGSSLKRFVVKRPDGTEEEVTLEITYYPETGKEIISTIKSAGGSAGGSAGG [r11_1024_JUSTAS],0.107 ± 0.31 kcal/mol,-0.0512 ± 0.21 kcal/mol
